This passage reports Percentage Blocking results from patent publication US20180009892A1.

The target of the assay is human ROR1 extracellular domain (ECD) protein (human) (UniProt Q01973). The experiment in a line: ForteBio Octet, blocking of Wnt5a binding to ROR1. On the technique in general: Biolayer interferometry detects binding as a change in optical thickness at a sensor tip.
Chain of human ROR1 extracellular domain (ECD) protein (human) (Q01973 30-406 limits assumed): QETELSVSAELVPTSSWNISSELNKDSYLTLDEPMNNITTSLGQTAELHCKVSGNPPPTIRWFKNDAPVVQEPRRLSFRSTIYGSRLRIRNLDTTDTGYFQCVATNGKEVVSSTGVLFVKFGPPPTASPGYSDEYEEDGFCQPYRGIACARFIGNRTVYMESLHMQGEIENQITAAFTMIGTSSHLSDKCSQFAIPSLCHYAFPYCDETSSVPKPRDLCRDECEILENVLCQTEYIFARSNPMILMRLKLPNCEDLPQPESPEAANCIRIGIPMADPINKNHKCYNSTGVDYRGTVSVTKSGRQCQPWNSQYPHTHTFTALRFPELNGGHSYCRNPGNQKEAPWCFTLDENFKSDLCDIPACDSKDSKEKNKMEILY

Substance mAb Control (antibody) had a Percentage Blocking of 0%.
